The values below come from paper PMC12697983 (PLOS Pathogens, 2025).

The target in assay [1] is SARS-CoV-2 Omicron BA.5 spike ectodomain trimer, prefusion-stabilised (BA.5-S6P) (SARS-CoV-2 Omicron BA.5, N440K | proline substitutions at 986 and 987 | proline substitutions at 986 and …). Briefly: cryo-EM structure. To be noted: both partners purified.
For assay [2], the target named is spike protein on native SARS-CoV-2 virions (Victoria variant) (SARS-CoV-2, Victoria isolate (entry: …, UniProt P0DTC2, strain)). The experiment in a line: cryo-EM imaging of virions. To be noted: one partner purified.

What is called stoichiometry N is a count of units in the complex or per binding partner.

B1: 1C4 Fab (Fab, V domains shown)
VH: QIQLVQSGPELKKPGETVKISCKASGYTFTDYGLNWVKQAPGKGLKWMGWINTYSGEPTYNDEFRGRFAFSLETSTITAYLKINNLKNEDTATYFCARGGNWDWYFDVWGAGTTVTVSS
VL: DIVLTQSPATLSVTPGDNVSLSCRASQIISNNLHWYQQKSHESPRLLIKYASQSISGIPSRFSGSGSGTDFTLSINSVETEDFGMYFCQQSNTWPLTCGSGTKLELN
Consider B1, for which, in assay [1], the “stoichiometry N” value is 3 Fabs per spike trimer.

B2: 1C4 (murine monoclonal antibody, IgG format) (antibody, V domains shown)
VH: QIQLVQSGPELKKPGETVKISCKASGYTFTDYGLNWVKQAPGKGLKWMGWINTYSGEPTYNDEFRGRFAFSLETSTITAYLKINNLKNEDTATYFCARGGNWDWYFDVWGAGTTVTVSS
VL: DIVLTQSPATLSVTPGDNVSLSCRASQIISNNLHWYQQKSHESPRLLIKYASQSISGIPSRFSGSGSGTDFTLSINSVETEDFGMYFCQQSNTWPLTCGSGTKLELN
For the molecule B2, the binding result in assay [2] was “binds”.
